For data set [1] the following is noted: cubic phase; cited from earlier work.
The nature of data set [2]: ATR-FTIR secondary structure of LSZ as a function of temperature. In kind it is physicochemical. How it is done:
Proteins in general are known for their low stability at high temperatures.
Further temperature increase confirmed the diverse denaturation mechanism. Up to 73° C., the α-helix and the random coil contents decreased in favor of γ-turn formation.

Data set [3] can be described thus: ATR-FTIR secondary structure analysis of LSZ (amide I' band) as a function of pH. The format is physicochemical. Here is the method: The spectra were recorded with 50 scans, with spectral resolution of 2 cm^−1, at room temperature.
Data set [4] in a line: ATR-FTIR secondary structure of LSZ under urea denaturation. In kind it is physicochemical. The text has this:
The α-helix to β-sheet transition in proteins is highly important for understanding their folding and biological functions. It is recognized that the α→β transition is probably responsible for several conformational diseases, such as Alzheimer disease, where the α-helical forms are normal and the β-sheet forms are amyloidogenic. Urea is an accepted denaturating agent, which may act in several molecular mechanisms. These possible pathways include direct interactions of urea with the protein, indirect effects by decreasing water-water interactions and hydrogen bond strength, and allowing the exposure of nonpolar groups of the protein to the solvent and combinations thereof.
The β-sheet formation was detected by FTIR analysis at 1620 cm^−1 and it was associated with aggregation of the protein, caused by denaturation, in accordance with the literature. In contrast, within the hexagonal mesophase the α-helical conformation stayed intact up to 4M of urea.

Data set [5] is classed as in vitro ADME. The text has this: FIG. 24 presents the cumulative transdermal transport of 1 wt % desmopressin, (□) via water solution, (Δ) via HII mesophase.
The applicability and efficiency the HII mesophase as carriers for a transdermal delivery of desmopressin as model peptide drug was studied. Such delivery was especially relevant since the high hydrophilicity of this peptide was the main reason for its uncontrolled fast release when used without a proper carrier.
In the case of bulk hexagonal mesophase, reduced values of steady-state flux were obtained for the drug and its permeability coefficients through the skin, as compared to a water solution. In other words, the peptide molecules penetrated more easily and freely through the skin from water solution, than from hexagonal phase vehicles. […] The drug probably accumulated in microfissures and in a three-dimensional network of thin threads of the skin.

Data set [6] in a line: In vivo oral delivery of calcitonin in rats, plasma calcium levels. The arrangement: species or system Sprague-Dawley rats. As to conditions: calcitonin solubilized in hexagonal liquid crystals and/or hexosomes. Here is the method:
Male Sprague-Dawley rats (Orient Bio Inc, Korea), 7- to 8-weeks old, weighing 250-310 g, were used in the experiments. Animals were housed under a 12-h light-dark cycle, with food and water ad libitum. All animal handling was in accordance with the guidelines of Animal Care and Use Committee of the Korean Institute of Science and Technology.
The technique of cannulation of the jugular vein and arterial has been developed to allow serial blood sampling from an animal. After anesthesia with 0.4 ml/kg of intraperitoneally administered Rumpun/Zoletile [1:2 (v/v)], an incision was made in the skin just above the right clavicle. After preparation of the jugular vein, it was ligated at the distal side. A cannula filled with heparinized normal saline (10 units/ml) was inserted until the tip reached into the right atrium. Arterial cannulation was performed according to the same methods. […]
Calcium concentration at time zero was normalized as the reference level. […] The calcium level in plasma sample was determined using a commercial Calcium Colorimetric Assay Kit (K380-250, Biovision, Mountain View, Calif., USA). In short, plasma calcium was treated with o-cresolphthalein to form a purple colored complex which was measured at 575 nm. […]

The nature of data set [7]: ATR-FTIR conformational stability of calcitonin in HII mesophase. The format is physicochemical. From the text:
In order to overcome this problem, calcitonin was solubilized into the reverse hexagonal mesophase of the invention, as disclosed herein. Transition from random coil, which is characteristic to the stable and soluble state of the peptide to α helix and mainly β-sheet, which are responsible for the unfavorable aggregation, was detected using ATR-FTIR (FIG. 31). It is well documented that calcitonin is extremely unstable in aqueous solutions, which is reflected by a significant decrease of random coil content and simultaneous increase in the concentration of α helix and β-sheet. At room temperature this trend is observed already after ˜2 days. Using the ATR-FTIR technique, the embedment of calcitonin into the aqueous channels of HII mesophase was explored, indicating a significant improvement in the stability of the peptide (FIGS. 32a-c). […] Therefore, the opposite tendency of calcitonin stabilization in the hexagonal phase was detected, as compared to a water solution. Only after 27 days, the peptide stability decreased, as reflected by the decrease of the random coil content.

The mark [8] stands for this setting: water solution, after urea denaturation (starting from 2M urea).
The mark [9] stands for this setting: water solution, before the urea-induced decrease.

In the case of “cytochrome C: intermediate sized protein released from cubic phase [reference compound]”, the “time in which the bulk of the release occurred” value (shortened to “time in which the bulk”) in data set [1] is “a week”.
Turning to “LSZ: hydrophilic protein (14.4 KDa) used as model protein solubilized in the HII mesophase”, the “temperature from which LSZ denaturation occurs” value in data set [2] (D2O) was 63 °C. Further, the random coil content was approximately 0.3 in data set [2] (D2O, 60° C.); 0.62 in data set [2] (D2O, 65° C.); “preserved” in data set [2] (LSZ loaded HII mesophase, between 63-65° C.); 0.03 in data set [4] (setting [8]); 0.27 in data set [4] (setting [9]); 0.06 in data set [4] (water solution, urea (comparison with HII)). Moreover, the random coil content in data set [4] (within the HII mesophase, urea) came out at 0.18. In addition, the α-helix content in data set [2] (D2O, 60° C.) is given as approximately 0.7; in data set [2] (D2O, 65° C.), 0.34; in data set [2] (LSZ loaded HII mesophase, 60° C.), approximately 0.7; in data set [2] (LSZ loaded HII mesophase, 65° C.), 0.61; in data set [3] (LSZ solution in D2O, pH 1.5), 0.78; in data set [4] (setting [8]), 0.21. In addition, in data set [4] (setting [9]), the α-helix content was 0.73. The γ-turn content in data set [2] (LSZ loaded HII mesophase, 63-65° C.) amounted to 0.1; in data set [2] (LSZ loaded HII mesophase, before 63-65° C.), 0. The “secondary structure on incorporation into hexagonal phase” value in data set [3] (HII mesophase, pH 1.5 to 6) was “no modifications”. For the same molecule, the “random coil structure content” value in data set [3] (LSZ solution in D2O, pH 1.5) turned out to be 0.22; in data set [3] (LSZ solution in D2O, pH 11.14), 0.4. The “random coil content within HII mesophases compared to D2O” value in data set [3] (pH from 6 to 11) is listed as “lower”. The “α-helix content within HII mesophases compared to D2O” value in data set [3] (pH from 6 to 11) is “considerably higher”. For the same molecule, the “time in which the bulk” value in data set [1] is listed as “a week”. The “β-sheet content within HII mesophase compared to water solution” value in data set [4] (urea) is “significantly lower”. For the same molecule, the β-sheet content result in data set [4] (water solution, urea denaturation) is on record as “up to 0.69”. Moreover, the “urea concentration up to which α-helical conformation stayed intact” value in data set [4] (within the hexagonal mesophase) is given as “up to 4 M”.
Regarding `NC(=O)CC[C@@H]1NC(=O)[C@H](Cc2ccccc2)NC(=O)[C@H](Cc2ccc(O)cc2)NC(=O)CCSSC[C@@H](C(=O)N2CCC[C@H]2C(=O)N[C@H](CCCN=C(N)N)C(=O)NCC(N)=O)NC(=O)[C@H](CC(N)=O)NC1=O` [desmopressin], in data set [5], the “permeability coefficients through the skin” value was “reduced”, the “release via the HII mesophase” value was “sustained release” and the steady-state flux result is recorded as “reduced”.
Regarding calcitonin, the “plasma levels of calcium” value in data set [6] is “significantly reduced”. Moreover, the “random coil structure content” value in data set [7] (in HII mesophase, pH 3 and 5, 27th day) was approximately 100%. The “content of α helix and β-sheet forms as a function of time” value in data set [7] (in HII mesophase, pH 3 to 9) is given as “drastically decreased”. The “time after which the peptide stability decreased” value in data set [7] (in reverse hexagonal phase) is on record as 27 days. Besides, the “time for which sCT conformational stability is maintained” value in data set [7] (solubilized within hexagonal mesophases) was “more than 20 days”.

B1: myoglobin: intermediate sized protein released from cubic phase (protein, UniProt P68082 2-154, looked up)
Myoglobin: GLSDGEWQQVLNVWGKVEADIAGHGQEVLIRLFTGHPETLEKFDKFKHLKTEAEMKASEDLKKHGTVVLTALGGILKKKGHHEAELKPLAQSHATKHKIPIKYLEFISDAIIHVLHSKHPGDFGADAQGAMTKALELFRNDIAAKYKELGFQG
As to B1, the “time in which the bulk” value in data set [1] is given as “a week”.
